Substitutions are numbered along the chain they refer to. In names and notes the source's numbering stands.
T1: wild-type human envoplakin plakin repeat domain (PRD), residues Asp1822-Ala2014 (human, UniProt Q92817 1822-2014)
T1 construct: envoplakin, human, plakin repeat domain, residues Asp1822-Ala2014; vector pProEX-HTC; also called envoplakin PRD; WT; source: E. coli BL21(DE3), purified (HisTrap, TEV cleavage, S75 size exclusion)
T1 sequence (looked up): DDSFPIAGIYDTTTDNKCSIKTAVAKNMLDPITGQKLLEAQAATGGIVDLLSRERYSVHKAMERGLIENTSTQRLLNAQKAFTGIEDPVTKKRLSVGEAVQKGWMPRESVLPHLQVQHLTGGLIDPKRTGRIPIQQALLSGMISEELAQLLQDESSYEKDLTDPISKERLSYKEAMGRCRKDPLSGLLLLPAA

T2: envoplakin PRD K2002E (control mutation) (human, UniProt Q92817 1822-2014, K2002E)
T2 construct: envoplakin, human, plakin repeat domain, residues Asp1822-Ala2014, mutant K2002E; 15N-labelled for NMR; source: E. coli BL21(DE3), purified (HisTrap, TEV cleavage, S75 size exclusion)
T2 sequence (looked up): T1 sequence (looked up) with K181E

B1: vimentin^ROD D112K (domain or fragment)
chain: not shown
notes: vimentin, human, rod residues 99-249, mutant D112K
B2: vimentin^ROD construct, vimentin residues 99-249 (coils 1A and 1B of the central rod domain) (domain or fragment)
chain: not shown
notes: vimentin, human, rod residues 99-249, coils 1A and 1B; Vector pET21a+; His tag retained for SPR; also called WT; envoplakin^ROD (as printed once in the text)
B3: vimentin^ROD double mutant D112K/D119K (domain or fragment)
chain: not shown
notes: vimentin, human, rod residues 99-249, double mutant D112K/D119K
B4: vimentin^ROD D119K (domain or fragment)
chain: not shown
notes: vimentin, human, rod residues 99-249, mutant D119K
B5: envoplakin PRD R1895E (domain or fragment, human, UniProt Q92817 1822-2014, looked up)
chain: T1 sequence (looked up) with R74E
notes: envoplakin, human, plakin repeat domain, residues Asp1822-Ala2014, mutant R1895E; 15N-labelled for NMR; source: E. coli BL21(DE3), purified (HisTrap, TEV cleavage, S75 size exclusion)
B6: envoplakin PRD R1914E (domain or fragment, human, UniProt Q92817 1822-2014, looked up)
chain: T1 sequence (looked up) with R93E
notes: envoplakin, human, plakin repeat domain, residues Asp1822-Ala2014, mutant R1914E; 15N-labelled for NMR; also called K1914E (as printed once in the text); source: E. coli BL21(DE3), purified (HisTrap, TEV cleavage, S75 size exclusion)
B7: envoplakin PRD K1901E (domain or fragment, human, UniProt Q92817 1822-2014, looked up)
chain: T1 sequence (looked up) with K80E
notes: envoplakin, human, plakin repeat domain, residues Asp1822-Ala2014, mutant K1901E; 15N-labelled for NMR; source: E. coli BL21(DE3), purified (HisTrap, TEV cleavage, S75 size exclusion)
B8: envoplakin PRD R1990E (control mutation) (domain or fragment, human, UniProt Q92817 1822-2014, looked up)
chain: T1 sequence (looked up) with R169E
notes: envoplakin, human, plakin repeat domain, residues Asp1822-Ala2014, mutant R1990E; 15N-labelled for NMR; source: E. coli BL21(DE3), purified (HisTrap, TEV cleavage, S75 size exclusion)
B9: envoplakin PRD K1994E (domain or fragment, human, UniProt Q92817 1822-2014, looked up)
chain: T1 sequence (looked up) with K173E
notes: envoplakin, human, plakin repeat domain, residues Asp1822-Ala2014, mutant K1994E; 15N-labelled for NMR; source: E. coli BL21(DE3), purified (HisTrap, TEV cleavage, S75 size exclusion)
B10: envoplakin PRD R1952A (domain or fragment, human, UniProt Q92817 1822-2014, looked up)
chain: T1 sequence (looked up) with R131A
notes: envoplakin, human, plakin repeat domain, residues Asp1822-Ala2014, mutant R1952A; 15N-labelled for NMR; source: E. coli BL21(DE3), purified (HisTrap, TEV cleavage, S75 size exclusion)
B11: envoplakin PRD K1847E (control mutation) (domain or fragment, human, UniProt Q92817 1822-2014, looked up)
chain: T1 sequence (looked up) with K26E
notes: envoplakin, human, plakin repeat domain, residues Asp1822-Ala2014, mutant K1847E; 15N-labelled for NMR; source: E. coli BL21(DE3), purified (HisTrap, TEV cleavage, S75 size exclusion)
B12: envoplakin PRD K1988E (control mutation) (domain or fragment, human, UniProt Q92817 1822-2014, looked up)
chain: T1 sequence (looked up) with K167E
notes: envoplakin, human, plakin repeat domain, residues Asp1822-Ala2014, mutant K1988E; 15N-labelled for NMR; source: E. coli BL21(DE3), purified (HisTrap, TEV cleavage, S75 size exclusion)

How the values were obtained:
Conditions in all cases: both partners purified
[1] = biological target: T1, wild-type human envoplakin plakin …; assay: SPR; His-tagged vimentin^ROD (wild type or mutant) immobilised on nickel-coated chips, Biacore 3000; envoplakin PRD 0-100 μM flowed over; 150 mM NaCl, 10 mM Hepes, 3 mM EDTA, 0.005% Surfactant P20, pH 7.4
[2] = biological target: B6; assay: as above
[3] = biological target: T2, envoplakin PRD K2002E (control mutation); assay: as above
[4] = biological target: B11; assay: as above
[5] = biological target: B7; assay: as above
[6] = biological target: T3, full-length human vimentin (residues Met1-Glu466) (human, UniProt P08670 1-466); assay: NMR titration; unlabelled full-length vimentin (10, 50, 100, 200 μM) added to 100 μM 15N-labelled wild-type or mutant envoplakin PRD; 1H,15N HSQC peak intensities; 20 mM Tris-Cl, pH 7, 1 mM DTT, no salt, 298 K
T3 construct: vimentin, human, residues Met1-Glu466; Vector pET21a+; also called vimentin^FL; full-length vimentin
T3 sequence (P08670 whole entry, the tested form may be a part): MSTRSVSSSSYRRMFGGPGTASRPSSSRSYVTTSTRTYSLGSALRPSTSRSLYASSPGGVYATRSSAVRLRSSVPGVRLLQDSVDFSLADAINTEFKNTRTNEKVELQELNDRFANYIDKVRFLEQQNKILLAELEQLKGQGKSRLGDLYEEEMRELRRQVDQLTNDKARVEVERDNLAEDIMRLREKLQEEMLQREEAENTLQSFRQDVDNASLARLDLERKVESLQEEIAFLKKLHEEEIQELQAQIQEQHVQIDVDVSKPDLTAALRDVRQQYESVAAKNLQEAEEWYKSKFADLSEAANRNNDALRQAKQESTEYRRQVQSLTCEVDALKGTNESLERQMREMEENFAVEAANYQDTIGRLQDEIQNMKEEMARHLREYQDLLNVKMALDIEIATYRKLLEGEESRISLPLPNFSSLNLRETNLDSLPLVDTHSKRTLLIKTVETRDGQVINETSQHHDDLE

| Binder | Kd [1] | binding result [6] | further results |
| --- | --- | --- | --- |
| B1 | 106 ± 45.6 µM |  |  |
| B2 | 19.1 ± 1.3 µM |  | Kd [2]: 132 ± 34.7 µM; Kd [3]: 14.5 ± 0.4 µM; Kd [4]: 26.5 ± 2 µM; Kd [5]: 69.3 ± 10.6 µM |
| B3 | 1500 ± 139 µM |  |  |
| B4 | 48.4 ± 5.5 µM |  |  |
| B5 |  | binds |  |
| B6 |  | binds |  |
| B7 |  | binds |  |
| B8 |  | binds |  |
| B9 |  | binds |  |
| B10 |  | binds |  |
| B11 |  | binds |  |
| B12 |  | binds |  |

— publication PMC4782060, “Mechanism of intermediate filament recognition by plakin repeat domains revealed by envoplakin targeting of vimentin” (Nature Communications, 2016)
